Results from US20090215120A1 (UNIVERSITY OF MEDICINE AND DENTISTRY OF NEW JERSEY, published 2009).

Tests used:
[1] = target: T1, EnvZc, the cytoplasmic domain of EnvZ (histidine kinase of E. coli) (E. coli, UniProt P0AEJ4 180-450); assay: 10% native PAGE, 4 uM of each protein, 5 min at room temperature
T1 construct: domain: cytoplasmic domain of EnvZ; Purified EnvZc
T1 sequence: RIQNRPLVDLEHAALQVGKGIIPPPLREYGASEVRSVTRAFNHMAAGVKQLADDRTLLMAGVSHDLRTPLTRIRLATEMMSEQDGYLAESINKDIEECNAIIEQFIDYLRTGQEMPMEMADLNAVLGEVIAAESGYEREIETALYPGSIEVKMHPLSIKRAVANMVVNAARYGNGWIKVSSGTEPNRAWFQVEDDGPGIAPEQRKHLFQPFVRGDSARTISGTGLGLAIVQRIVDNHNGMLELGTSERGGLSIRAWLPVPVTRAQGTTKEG

[2] = target: T2, OmpR, transcription factor (response regulator) of E. coli, P0AA16
T2 chain: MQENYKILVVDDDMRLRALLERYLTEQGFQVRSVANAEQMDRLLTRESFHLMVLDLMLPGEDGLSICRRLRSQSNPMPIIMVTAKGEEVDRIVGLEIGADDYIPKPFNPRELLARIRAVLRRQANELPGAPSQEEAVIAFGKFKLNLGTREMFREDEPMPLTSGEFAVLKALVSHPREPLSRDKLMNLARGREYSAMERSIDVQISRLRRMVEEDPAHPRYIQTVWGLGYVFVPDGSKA

[3] = target: PrS2-OmpR (OmpR fused to two tandem repeats of the N-terminal domain, residues 1-92, of protein S of Myxococcus xanthus), P02966
Sequence of PrS2-OmpR (OmpR fused to two tandem repeats of the N-terminal domain, residues 1-92, of protein S of Myxococcus xanthus), P02966 (P02966 whole entry, looked up, the tested form may be a part): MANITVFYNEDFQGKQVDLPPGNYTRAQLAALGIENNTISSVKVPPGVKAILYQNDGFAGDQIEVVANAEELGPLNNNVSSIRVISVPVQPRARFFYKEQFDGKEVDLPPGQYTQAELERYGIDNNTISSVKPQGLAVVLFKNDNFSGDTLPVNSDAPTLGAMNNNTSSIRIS

[4] = target: phosphorylated PrS2-OmpR (PrS2-OmpR-P)
[5] = target: T3, phosphorylated OmpR (OmpR-P), P0AA16
T3 chain: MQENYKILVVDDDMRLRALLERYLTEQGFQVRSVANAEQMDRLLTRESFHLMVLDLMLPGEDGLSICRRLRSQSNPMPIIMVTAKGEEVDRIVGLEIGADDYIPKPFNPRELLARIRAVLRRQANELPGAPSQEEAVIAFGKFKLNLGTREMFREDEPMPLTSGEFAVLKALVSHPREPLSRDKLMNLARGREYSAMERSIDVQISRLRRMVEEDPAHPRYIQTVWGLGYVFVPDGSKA

B1: OmpR, transcription factor (response regulator) of E. coli (other)
chain: MQENYKILVVDDDMRLRALLERYLTEQGFQVRSVANAEQMDRLLTRESFHLMVLDLMLPGEDGLSICRRLRSQSNPMPIIMVTAKGEEVDRIVGLEIGADDYIPKPFNPRELLARIRAVLRRQANELPGAPSQEEAVIAFGKFKLNLGTREMFREDEPMPLTSGEFAVLKALVSHPREPLSRDKLMNLARGREYSAMERSIDVQISRLRRMVEEDPAHPRYIQTVWGLGYVFVPDGSKA
notes: Purified wild-type OmpR; also called wild-type OmpR; non-tagged OmpR
binding result [1]: binds

B2: phosphorylated EnvZc (EnvZc-P), 32P-labelled (protein)
chain: RIQNRPLVDLEHAALQVGKGIIPPPLREYGASEVRSVTRAFNHMAAGVKQLADDRTLLMAGVSHDLRTPLTRIRLATEMMSEQDGYLAESINKDIEECNAIIEQFIDYLRTGQEMPMEMADLNAVLGEVIAAESGYEREIETALYPGSIEVKMHPLSIKRAVANMVVNAARYGNGWIKVSSGTEPNRAWFQVEDDGPGIAPEQRKHLFQPFVRGDSARTISGTGLGLAIVQRIVDNHNGMLELGTSERGGLSIRAWLPVPVTRAQGTTKEG
phosphotransfer from 32P-labelled EnvZc-P to OmpR (SDS-PAGE, autoradiography) [2]: the phosphoryl group on EnvZ was instantly transferred to OmpR and this reaction was completed in 120 sec | phosphotransfer from 32P-labelled EnvZc-P to PrS2-OmpR (SDS-PAGE, autoradiography) [3]: EnvZc-P was able to phosphorylate PrS2-OmpR and the result was almost identical to the non-tagged OmpR

B3: EnvZc, the cytoplasmic domain of EnvZ (histidine kinase of E. coli) (protein)
chain: RIQNRPLVDLEHAALQVGKGIIPPPLREYGASEVRSVTRAFNHMAAGVKQLADDRTLLMAGVSHDLRTPLTRIRLATEMMSEQDGYLAESINKDIEECNAIIEQFIDYLRTGQEMPMEMADLNAVLGEVIAAESGYEREIETALYPGSIEVKMHPLSIKRAVANMVVNAARYGNGWIKVSSGTEPNRAWFQVEDDGPGIAPEQRKHLFQPFVRGDSARTISGTGLGLAIVQRIVDNHNGMLELGTSERGGLSIRAWLPVPVTRAQGTTKEG
dephosphorylation of PrS2-OmpR-P by EnvZc upon addition of ADP (SDS-PAGE, autoradiography) [4]: Although in case of PrS2-OmpR, this reaction was slowed by PrS2 tag, phosphorylated PTS2-OmpR was dephosphorylated by EnvZc | dephosphorylation of OmpR-P by EnvZc upon addition of ADP (SDS-PAGE, autoradiography) [5]: OmpR-P was quickly dephosphorylated and Pi was released
